How the values were obtained:
CST (CTC1-STN1-TEN1) [1] = biological target: T1, CST (CTC1-STN1-TEN1) (human, UniProt Q2NKJ3;Q9H668;Q86WV5 1-1217;1-368;1-123); experiment: fluorescence anisotropy; 200 mM LiCl; FA: 200 mM NaCl, KCl or LiCl, 20 mM HEPES pH 7.4, 1 mM DTT, 22-25 C, 375 or 750 pM oligo, Kd,app +/- SEM; EMSA: 20 mM HEPES pH 7.4, 200 mM KCl, 1 nM 32P oligo; conditions: protein: recombinant, tags: 2xFLAG N-term on CTC1, 6xHis N-term on STN1 and TEN1, copies: 1;1;1, label: 5' fluorescein, linear in LiCl
T1 sequence (Q2NKJ3 whole entry, chain 1 of 3): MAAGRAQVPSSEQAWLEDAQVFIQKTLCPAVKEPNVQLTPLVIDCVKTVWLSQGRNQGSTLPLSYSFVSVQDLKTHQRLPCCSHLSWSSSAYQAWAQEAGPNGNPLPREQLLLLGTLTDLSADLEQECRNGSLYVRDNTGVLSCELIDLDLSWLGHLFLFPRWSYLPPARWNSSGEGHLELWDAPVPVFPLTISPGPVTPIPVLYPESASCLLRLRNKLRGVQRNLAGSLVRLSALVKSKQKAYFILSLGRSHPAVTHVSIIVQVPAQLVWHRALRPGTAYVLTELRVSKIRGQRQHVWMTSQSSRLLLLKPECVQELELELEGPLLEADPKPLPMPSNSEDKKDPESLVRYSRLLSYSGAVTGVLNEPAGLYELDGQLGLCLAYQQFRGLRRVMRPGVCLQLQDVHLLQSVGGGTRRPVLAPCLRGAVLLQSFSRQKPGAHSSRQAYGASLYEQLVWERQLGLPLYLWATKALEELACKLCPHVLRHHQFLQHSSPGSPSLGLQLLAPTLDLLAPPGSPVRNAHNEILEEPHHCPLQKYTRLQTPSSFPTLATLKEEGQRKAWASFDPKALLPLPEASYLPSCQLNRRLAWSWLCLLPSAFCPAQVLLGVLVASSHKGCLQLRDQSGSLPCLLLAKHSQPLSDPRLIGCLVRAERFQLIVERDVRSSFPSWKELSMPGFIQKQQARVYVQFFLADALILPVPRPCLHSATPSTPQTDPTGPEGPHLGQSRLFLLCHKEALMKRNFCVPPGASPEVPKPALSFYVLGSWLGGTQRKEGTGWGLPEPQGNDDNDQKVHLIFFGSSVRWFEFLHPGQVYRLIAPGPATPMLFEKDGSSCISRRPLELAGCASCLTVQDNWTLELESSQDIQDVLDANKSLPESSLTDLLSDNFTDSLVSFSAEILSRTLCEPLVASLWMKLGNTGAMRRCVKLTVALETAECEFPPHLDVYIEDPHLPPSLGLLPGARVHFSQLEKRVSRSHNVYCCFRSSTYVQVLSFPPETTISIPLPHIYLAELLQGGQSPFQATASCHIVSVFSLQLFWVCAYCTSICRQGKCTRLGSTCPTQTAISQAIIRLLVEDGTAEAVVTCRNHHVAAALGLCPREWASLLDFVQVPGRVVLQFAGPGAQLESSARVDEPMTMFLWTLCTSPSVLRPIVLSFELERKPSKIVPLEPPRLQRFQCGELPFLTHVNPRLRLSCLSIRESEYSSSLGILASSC
T1 sequence (Q9H668 whole entry, chain 2 of 3): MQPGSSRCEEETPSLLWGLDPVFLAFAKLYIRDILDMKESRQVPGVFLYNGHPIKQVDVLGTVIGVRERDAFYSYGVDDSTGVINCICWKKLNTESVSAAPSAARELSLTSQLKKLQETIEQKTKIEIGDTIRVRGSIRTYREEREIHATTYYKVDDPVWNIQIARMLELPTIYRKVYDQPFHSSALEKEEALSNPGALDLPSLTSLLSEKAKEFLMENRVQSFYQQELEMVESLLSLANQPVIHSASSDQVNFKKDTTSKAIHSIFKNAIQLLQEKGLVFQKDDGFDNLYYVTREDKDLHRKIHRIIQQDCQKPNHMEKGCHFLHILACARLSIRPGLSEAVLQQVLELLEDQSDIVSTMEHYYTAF
T1 sequence (Q86WV5 whole entry, chain 3 of 3): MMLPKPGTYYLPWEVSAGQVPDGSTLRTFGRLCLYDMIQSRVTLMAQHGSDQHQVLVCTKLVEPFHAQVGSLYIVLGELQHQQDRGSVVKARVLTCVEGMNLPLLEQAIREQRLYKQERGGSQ

CST (CTC1-STN1-TEN1) [2] = biological target: T1, CST (CTC1-STN1-TEN1); experiment: fluorescence anisotropy; 200 mM NaCl; FA: 200 mM NaCl, KCl or LiCl, 20 mM HEPES pH 7.4, 1 mM DTT, 22-25 C, 375 or 750 pM oligo, Kd,app +/- SEM; EMSA: 20 mM HEPES pH 7.4, 200 mM KCl, 1 nM 32P oligo; conditions: protein: recombinant, tags: 2xFLAG N-term on CTC1, 6xHis N-term on STN1 and TEN1, copies: 1;1;1, label: 5' fluorescein
CST (CTC1-STN1-TEN1) [3] = biological target: T1, CST (CTC1-STN1-TEN1); experiment: fluorescence anisotropy; 200 mM KCl; FA: 200 mM NaCl, KCl or LiCl, 20 mM HEPES pH 7.4, 1 mM DTT, 22-25 C, 375 or 750 pM oligo, Kd,app +/- SEM; EMSA: 20 mM HEPES pH 7.4, 200 mM KCl, 1 nM 32P oligo; conditions: protein: recombinant, tags: 2xFLAG N-term on CTC1, 6xHis N-term on STN1 and TEN1, copies: 1;1;1, label: 5' fluorescein, linear in LiCl
[4] = biological target: T2, RPA WT (RPA70-RPA32-RPA14) (human, UniProt P27694;P15927;P35244 1-616;1-270;1-121); experiment: fluorescence anisotropy; 200 mM LiCl; FA: 200 mM NaCl, KCl or LiCl, 20 mM HEPES pH 7.4, 1 mM DTT, 22-25 C, 375 or 750 pM oligo, Kd,app +/- SEM; EMSA: 20 mM HEPES pH 7.4, 200 mM KCl, 1 nM 32P oligo; conditions: protein: recombinant, tags: 6xHis N-term on RPA70 and RPA14, copies: 1;1;1, label: 5' fluorescein, linear in LiCl
T2 sequence (P27694 whole entry, chain 1 of 3): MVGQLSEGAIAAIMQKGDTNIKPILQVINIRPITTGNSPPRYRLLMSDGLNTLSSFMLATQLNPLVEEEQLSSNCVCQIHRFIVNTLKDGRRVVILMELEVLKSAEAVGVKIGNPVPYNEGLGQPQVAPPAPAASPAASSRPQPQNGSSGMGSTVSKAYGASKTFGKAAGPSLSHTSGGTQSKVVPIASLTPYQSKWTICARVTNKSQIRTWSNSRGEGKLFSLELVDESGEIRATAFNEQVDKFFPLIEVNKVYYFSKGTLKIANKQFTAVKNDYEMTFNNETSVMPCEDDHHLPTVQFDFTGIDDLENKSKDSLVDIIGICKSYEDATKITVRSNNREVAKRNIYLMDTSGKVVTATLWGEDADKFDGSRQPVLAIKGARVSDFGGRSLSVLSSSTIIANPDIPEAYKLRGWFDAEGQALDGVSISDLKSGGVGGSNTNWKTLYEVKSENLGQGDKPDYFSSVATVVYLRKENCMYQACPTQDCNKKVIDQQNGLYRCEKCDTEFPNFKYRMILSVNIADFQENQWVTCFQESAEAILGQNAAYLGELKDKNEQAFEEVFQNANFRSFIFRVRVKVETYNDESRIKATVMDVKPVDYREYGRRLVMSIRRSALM
T2 sequence (P15927 whole entry, chain 2 of 3): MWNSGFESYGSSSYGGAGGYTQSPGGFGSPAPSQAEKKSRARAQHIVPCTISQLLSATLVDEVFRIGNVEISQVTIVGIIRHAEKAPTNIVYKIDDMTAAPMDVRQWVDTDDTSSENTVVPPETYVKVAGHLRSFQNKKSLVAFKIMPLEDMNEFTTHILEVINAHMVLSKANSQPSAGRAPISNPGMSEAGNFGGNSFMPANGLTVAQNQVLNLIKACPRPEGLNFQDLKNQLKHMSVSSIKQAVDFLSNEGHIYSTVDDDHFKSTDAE
T2 sequence (P35244 whole entry, chain 3 of 3): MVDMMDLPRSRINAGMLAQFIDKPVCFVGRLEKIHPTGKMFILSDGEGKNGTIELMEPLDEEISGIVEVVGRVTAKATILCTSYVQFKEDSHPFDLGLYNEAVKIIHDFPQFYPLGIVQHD

[5] = biological target: T2, RPA WT (RPA70-RPA32-RPA14); experiment: fluorescence anisotropy; 200 mM NaCl; FA: 200 mM NaCl, KCl or LiCl, 20 mM HEPES pH 7.4, 1 mM DTT, 22-25 C, 375 or 750 pM oligo, Kd,app +/- SEM; EMSA: 20 mM HEPES pH 7.4, 200 mM KCl, 1 nM 32P oligo; conditions: protein: recombinant, tags: 6xHis N-term on RPA70 and RPA14, copies: 1;1;1, label: 5' fluorescein, linear in LiCl
[6] = biological target: T2, RPA WT (RPA70-RPA32-RPA14); experiment: fluorescence anisotropy; 200 mM KCl; FA: 200 mM NaCl, KCl or LiCl, 20 mM HEPES pH 7.4, 1 mM DTT, 22-25 C, 375 or 750 pM oligo, Kd,app +/- SEM; EMSA: 20 mM HEPES pH 7.4, 200 mM KCl, 1 nM 32P oligo; conditions: protein: recombinant, tags: 6xHis N-term on RPA70 and RPA14, copies: 1;1;1, label: 5' fluorescein, linear in LiCl
[7] = intramolecular G4 at 5' end, 18 nt 3' tail
[8] = parallel G4 in KCl (predominantly unimolecular)
[9] = intramolecular G4 at 3' end, 5' tail

B1: 6GZN (structured_DNA)
DNA: GGGTAGGGAGCGGGAGAGGG
CST (CTC1-STN1-TEN1) [1]; antiparallel G4 in KCl
  Kd: 1.1 ± 0.3 nM

B2: C22 (ssDNA)
DNA: CCCTAACCCTAACCCTAACCCT
CST (CTC1-STN1-TEN1) [2]; linear
  Kd: 184 ± 28 nM

B3: 2LBY (structured_DNA)
DNA: TAGGGAGGGTAGGGAGGGT
CST (CTC1-STN1-TEN1) [1]; parallel G4 in KCl
  Kd: 11.5 ± 1.3 nM
CST (CTC1-STN1-TEN1) [3]; parallel G4 in KCl
  Kd: 26.5 ± 1.5 nM

B4: Tel40 5' G4 (structured_DNA)
DNA: AGGGTTAGGGTTAGGGTTAGGGTGAGTGTGAGTGTGAGTG
CST (CTC1-STN1-TEN1) [1]; [7]
  Kd: 1.53 ± 0.17 nM
[4]; [7]
  Kd: 0.82 ± 0.15 nM
CST (CTC1-STN1-TEN1) [2]; intramolecular G4 at 5' end, 18 nt 3' tail, linear in LiCl
  Kd: 1.47 ± 0.23 nM
[5]; [7]
  Kd: 0.78 ± 0.08 nM
[6]; [7]
  Kd: 0.85 ± 0.21 nM

B5: 2M27 (structured_DNA)
DNA: CGGGGCGGGCCTTGGGCGGGGT
CST (CTC1-STN1-TEN1) [1]; [8]
  Kd: 10.8 ± 0.2 nM
CST (CTC1-STN1-TEN1) [3]; [8]
  Kd: 13.3 ± 0.9 nM

B6: 2JSL (structured_DNA)
DNA: TAGGGTTAGGGTTAGGGTTAGGGTT
CST (CTC1-STN1-TEN1) [1]; hybrid 2 G4 in KCl
  Kd: 8.3 ± 0.6 nM

B7: 2KM3 (structured_DNA)
DNA: AGGGCTAGGGCTAGGGCTAGGG
CST (CTC1-STN1-TEN1) [1]; antiparallel G4 in KCl
  Kd: 4.5 ± 0.3 nM

B8: 2GKU (structured_DNA)
DNA: TTGGGTTAGGGTTAGGGTTAGGGA
CST (CTC1-STN1-TEN1) [1]; hybrid 1 G4 in KCl
  Kd: 11.9 ± 1.2 nM

B9: Tel40 Middle G4 (structured_DNA)
DNA: AGTGTGAGTTAGGGTTAGGGTTAGGGTTAGGGTGAGTGTG
CST (CTC1-STN1-TEN1) [1]; intramolecular G4 in middle
  Kd: 1.94 ± 0.16 nM
[4]; intramolecular G4 in middle
  Kd: 0.61 ± 0.13 nM
CST (CTC1-STN1-TEN1) [2]; intramolecular G4 in middle, linear in LiCl
  Kd: 1.04 ± 0.21 nM
[5]; intramolecular G4 in middle
  Kd: 0.28 ± 0.03 nM
CST (CTC1-STN1-TEN1) [3]; intramolecular G4 in middle
  Kd: 4.4 ± 0.3 nM
[6]; intramolecular G4 in middle
  Kd: 0.46 ± 0.05 nM

B10: Tel40 3' G4 (structured_DNA)
DNA: AGTGTGAGTGTGAGTGTTAGGGTTAGGGTTAGGGTTAGGG
CST (CTC1-STN1-TEN1) [1]; [9]
  Kd: 1.09 ± 0.1 nM
[4]; [9]
  Kd: 0.68 ± 0.16 nM
CST (CTC1-STN1-TEN1) [2]; intramolecular G4 at 3' end, 5' tail, linear in LiCl
  Kd: 2.3 ± 0.4 nM
[5]; [9]
  Kd: 0.4 ± 0.08 nM
CST (CTC1-STN1-TEN1) [3]; [9]
  Kd: 3.4 ± 0.5 nM
[6]; [9]
  Kd: 0.52 ± 0.11 nM

From publication PMC10250233, “RPA engages telomeric G-quadruplexes more effectively than CST”
